The values that follow come from US20150232576A1 (published 2015).

Assay [1] deals with T1, ERK-2 (extracellular signal-regulated kinase 2) (UniProt P28482 1-360, limits assumed, biotinylated for immobilisation on streptavidin sensors).
T1 construct: Bought protein; also called ERK1/2
Description: BLI, immobilised ERK-2, single component fit. As to the method:
NOSs were expressed and purified as known in the art (22-24). Heme and flavin content were estimated spectrophotometrically, and activity assayed by following NADPH consumption at 340 nm (23, 24). eNOS NO synthase activity and cytochrome c reduction were assayed as known in the art (25, 26), the concentration of CaM was reduced to 0.6 μM because of potential competition between CaM and p38. Phosphorylated His-p38 was expressed as known in the art (26) and was purified using Talon™ resin as directed by the manufacturer. ERK-2 was purchased from PROSPEC (NJ). Biolayer interferometry (27) measurements were made on a ForteBio (Menlo Park Calif.) Octet QK biosensor using streptavidin sensors. Assays were performed in 200 μL volumes at 25° C. p38 and ERK were biotinylated as known in the art (21). Biotinylated kinases were loaded onto sensors for 600 s. After establishing baseline response, kinases were exposed to analyte eNOS or nNOS at a range of concentrations. Baseline, association, and dissociation phases were all performed in NOS buffer (10 mM phosphate, pH 7.5, 100 mM NaCl, 10% glycerol, 0.005% surfactant P-20, 10 uM CaCl₂). Association and dissociation were monitored as nm shift. Nonspecific binding of analytes to sensors without ligand was negligible and so was not subtracted.
The concentration dependence was similar to that of the binding of eNOS to p38. […]
(In general: In BLI a coated tip is dipped into the sample, and binding shifts an interference pattern.)

Assay [2] addresses T2, calmodulin (CaM) (UniProt P0DP23 2-149). Description: optical biosensing (BLI, SPR), immobilised CaM.
For assay [3], the target named is T2, calmodulin (CaM). The experiment in a line: BLI, biotinylated CaM on streptavidin sensors, eNOS analyte, global single-state model.
Assay [4] has as its target T2, calmodulin (CaM). The experiment in a line: SPR (Biacore X100, CAPture chip), immobilised CaM, single-cycle kinetics, sequential model.
The target in assay [5] is T2, calmodulin (CaM). The experiment in a line: BLI, immobilised CaM, single-state model.

T1 sequence (P28482 whole entry): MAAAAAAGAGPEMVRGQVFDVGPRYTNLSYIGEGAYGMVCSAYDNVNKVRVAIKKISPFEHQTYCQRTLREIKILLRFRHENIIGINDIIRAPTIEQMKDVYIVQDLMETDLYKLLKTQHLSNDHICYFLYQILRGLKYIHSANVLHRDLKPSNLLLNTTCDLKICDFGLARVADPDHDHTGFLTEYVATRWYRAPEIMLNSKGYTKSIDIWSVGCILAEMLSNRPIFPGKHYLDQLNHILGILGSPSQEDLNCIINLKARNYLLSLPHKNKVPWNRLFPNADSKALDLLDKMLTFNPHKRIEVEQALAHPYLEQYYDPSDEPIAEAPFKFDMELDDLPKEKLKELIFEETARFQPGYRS

B1: endothelial nitric oxide synthase (eNOS), purified, unphosphorylated (enzyme, bovine, UniProt P29473 1-1205, looked up)
chain: MGNLKSVGQEPGPPCGLGLGLGLGLCGKQGPASPAPEPSRAPAPATPHAPDHSPAPNSPTLTRPPEGPKFPRVKNWELGSITYDTLCAQSQQDGPCTPRCCLGSLVLPRKLQTRPSPGPPPAEQLLSQARDFINQYYSSIKRSGSQAHEERLQEVEAEVASTGTYHLRESELVFGAKQAWRNAPRCVGRIQWGKLQVFDARDCSSAQEMFTYICNHIKYATNRGNLRSAITVFPQRAPGRGDFRIWNSQLVRYAGYRQQDGSVRGDPANVEITELCIQHGWTPGNGRFDVLPLLLQAPDEAPELFVLPPELVLEVPLEHPTLEWFAALGLRWYALPAVSNMLLEIGGLEFSAAPFSGWYMSTEIGTRNLCDPHRYNILEDVAVCMDLDTRTTSSLWKDKAAVEINLAVLHSFQLAKVTIVDHHAATVSFMKHLDNEQKARGGCPADWAWIVPPISGSLTPVFHQEMVNYILSPAFRYQPDPWKGSATKGAGITRKKTFKEVANAVKISASLMGTLMAKRVKATILYASETGRAQSYAQQLGRLFRKAFDPRVLCMDEYDVVSLEHEALVLVVTSTFGNGDPPENGESFAAALMEMSGPYNSSPRPEQHKSYKIRFNSVSCSDPLVSSWRRKRKESSNTDSAGALGTLRFCVFGLGSRAYPHFCAFARAVDTRLEELGGERLLQLGQGDELCGQEEAFRGWAKAAFQASCETFCVGEEAKAAAQDIFSPKRSWKRQRYRLSTQAEGLQLLPGLIHVHRRKMFQATVLSVENLQSSKSTRATILVRLDTAGQEGLQYQPGDHIGICPPNRPGLVEALLSRVEDPPPPTESVAVEQLEKGSPGGPPPSWVRDPRLPPCTLRQALTFFLDITSPPSPRLLRLLSTLAEEPSEQQELETLSQDPRRYEEWKWFRCPTLLEVLEQFPSVALPAPLLLTQLPLLQPRYYSVSSAPNAHPGEVHLTVAVLAYRTQDGLGPLHYGVCSTWLSQLKTGDPVPCFIRGAPSFRLPPDPYVPCILVGPGTGIAPFRGFWQERLHDIESKGLQPAPMTLVFGCRCSQLDHLYRDEVQDAQERGVFGRVLTAFSREPDSPKTYVQDILRTELAAEVHRVLCLERGHMFVCGDVTMATSVLQTVQRILATEGDMELDEAGDVIGVLRDQQRYHEDIFGLTLRTQEVTSRIRTQSFSLQERHLRGAVPWAFDPPGPDTPGP
notes: Expressed and purified 'as known in the art (22-24)'; also called unphosphorylated eNOS; purified eNOS
A word on the Kd: it is the concentration at which binding is half-saturated. For orientation: koff means the first-order rate constant of dissociation. As usually defined, the kon is the rate constant with which the complex forms. Take B1: the “fold of apparent Kd against that measured for p38” value in assay [1] was around 2 fold. Further, in assay [2], the Kd was around 1000 pM. In assay [3], this molecule returned a Kd of 920 pM, an off-rate constant (koff) of 0.00011 s⁻¹ and a kon of 120000 M⁻¹ s⁻¹. In addition, the affinity in assay [4], expressed as Kd, was 720 pM.

B2: ERK phosphorylated eNOS (enzyme)
chain: B1 chain
modifications: phosphorylated in vitro by ERK2 at S602, T46 and S58 (bovine eNOS numbering); apparent stoichiometry 2-3 phosphates per monomer
For the molecule B2, the “fold higher koff than unphosphorylated eNOS” value in assay [5] amounted to 3 fold. The Kd is around 1000 pM in assay [2], 2700 pM in assay [3] and 650 pM in assay [4]. Moreover, the koff in assay [3] was 0.00012 s⁻¹. For the same molecule, the kon in assay [3] came to 120000 M⁻¹ s⁻¹.
